Laboratory results from patent US7605133 (PANACEA PHARMACEUTICALS, dated 2009).
Ends that are not written are not given here.

Columns and labels:
[1] = target: T1, NAC portion of α-synuclein (approx. amino acids 61-87) (human, UniProt P37840 61-87); experiment: phage display selection
T1 construct: range 61-87; also called α-synuclein 61-87 peptide

[2] = target: α-synuclein (recombinant, wildtype) (human, UniProt P37840 1-140); experiment: cell-based or functional assay
[3] = target: T1, NAC portion of α-synuclein (approx. …); experiment: phage display selection with the α-synuclein 121-131 and 61-87 peptides as the bait

Binder	binding result [1]	inhibition of iron-induced α-synuclein aggregation in vitro, densitometric quantification, 10-fold excess of the peptide [2]	binding result [3]
WPFHHHR (7-mer from phage display)	binds	–	–
SLKRLPK (also called the peptide)	binds	38%	–
THIHHPS (7-mer from phage display)	binds	–	–
SLKRLPK (also: displayed on phage coat protein, also called SLKRLPK phage; not shown: phage coat protein that carries the 7-mer (New England Biolabs phage display kit); neither the protein nor any linker is) [phage containing the SLKRLPK (SEQ ID NO: 7) peptide]	–	–	binds
RLRGRNQ (7-mer from phage display)	binds	–	–
HLYHHKT (7-mer from phage display)	binds	–	–
